Test results taken from patent publication US20180049457A1, “ENZYMATIC SYNTHESIS OF SOLUBLE GLUCAN FIBER” (E I DU PONT DE NEMOURS AND COMPANY, priority 2014, published 2018).

Test: GTF activity of strains (PAHBAH assay)
Assay type: biochemical
Conditions: enzyme expressed in B. subtilis host
Experimental: GTF activity of the strains was analyzed by PAHBAH assay in three separate experiments. Due to minor variations between the expeirments, Table 2 lists the activity of the truncated enzymes in the B. subtilis host along with the experiment in which the activity was measured. Most of the T1, T2, and T6 truncations decreased the activity of the enzymes, whereas the T4 and T5 C-terminal truncations retained similar activity relative to the respective N terminal-only truncations (NT). […] To identify specific amino acid residues within the catalytic domain that may be involved in producing the soluble α-glucan fiber, we analyzed the crystal structures (PDB Identifiers: 3AIB, 3AIC, and 3HZ3) of the catalytic domains of three glucosyltransferases to identify residues within 8 Angstroms of the bound ligand. 57 residues met that criterion. A motif was generated based on the corresponding 57 amino acids in GTF0459 and each of the identified homologs. The motif was then used to generate a consensus sequence to capture the variability in the catalytic domains of GTF0459 and the identified homologs. The consensus sequence is provided as SEQ ID NO: 153.

B1: GTF3808NT: N terminal-only truncated GTF3808 from Streptococcus sp. SR4, SEQ ID NO: 108, strain SG1313 (protein)
chain: INGKQYYVNSDGSVRKNFVFEQDGKSYYFDAETGALATKSQDEFSTEPIKATVDFSSGNQLYKNDDKSLDQLDTFITADAWYRPKSILKDGKTWTASTEADKRPLLMVWWPDKSTQVNYLNYMQNQGLGAGSFSTNSSQESLDQAAKMVQTKIEERIAREGNTNWLRTSIDQFIKTQPGWNSSTENSSYDHLQGGQLLFNNSKGDTGNRTSHANSDYRLLNRTPTNQTGTRKYFKDNSIGGLEFLLANDIDNSNPAVQAEQLNWLHFMMNIGSIMANDPTANFDGLRVDALDNVDADLLQIASDYFKAAYGVDKSEANAIKHLSYLEAWSANDPYYNKDTKGAQLPIDNALRNALTNLLMRDKNTRMQLGDMTAFINSSLNPRGANDKNGERMANYIFTRAHDTEAQTIIQRIIRDRINPNLFGYNFTRDEIKKAFEIYNEDIDKAHKTYASYNLPSVYALMLTNKDSVTRVYYGDLYREDGHYMAKKTPYFDAIDTLLRARIKYVAGGQDMEVKKVGNDGLLTSVRYGKGANNRTDLGTSETRTQGMGVIMTNNYDFRLGSNETVTMNMGRAHRNQLYRPLLLTTKDGIATYLNDSDVPKNLLKRTDWNGNLTFNANDVFGVENVQVSGYLGVWVPYGAKANQDARTQPSNRANSDGQVYKSSAALDSQVMYEAFSNFQAFADDQPELYMNRVLAKNTDLLKAWGITSVGLPPQYVSSKDGTFLDSTIDNGYAFDDRYDMALSQNNKYGSLEDLLNVLRALHKDGIQAIADWVPDQIYNLPGKEVVNATRVNGYGNHQVGYQIIDQAYVANTRTDGTDYQGKYGGAFLDELKAKYPSIFNRVQISNGKQLPTNEKITKWSAKYFNGTNILGRGINYVLRDDKTNQYFNTSANSQLLPTPLRDTGAITSTQVFQRRGQDVYFLRDNQAVKNEFVQDGNGNWYYFGGDGKMTKGAQNINNKDYYFFDNGIQLRNALRRASNGYTYYYGLDGAMVKNAFVDFDDKHKQVRAFTTQGTMVVGNLHWSGHHFYFDRETGIQAKDRVVRTDDGKLHYYVAETGDMGRNVFATDSSTGKRYYFDADGNTVTGSRVIDGKTYYFNQDGSVGTAYSNRADSIIFENGKARYITPAGEIGRSIFVYNPATKAWNYFDKEGNRVTGRQYIDGHLYYFKEDGSQAKGEIIEENGIKYYYEPESGILASGRYLQVGDDQWMYFKQDGSLAIGQVRADHGYLKYFDKNGIQVKGKTVVEDGKTYYYDAHSGALVTSSFAEIAPNQWSYFNTDGQALKGKWTINGKEYYFDENGIQYKGKAIKVGSRYKYYDENDGQPVTNRFAQIEPNVWAYFGADGYAVTGEQVINGQHLYFDQSGRQVKGAYVTVNGQRRYYDANTGEYVPGR
modifications: Streptococcus sp. SR4
- GTF activity of strains: Acitivity (Experiment Number 3): 34.9 U/mL

B2: GTF3808T5: T5 C-terminal truncation of GTF3808, SEQ ID NO: 124, strain SG1330 (protein)
chain: INGKQYYVNSDGSVRKNFVFEQDGKSYYFDAETGALATKSQDEFSTEPIKATVDFSSGNQLYKNDDKSLDQLDTFITADAWYRPKSILKDGKTWTASTEADKRPLLMVWWPDKSTQVNYLNYMQNQGLGAGSFSTNSSQESLDQAAKMVQTKIEERIAREGNTNWLRTSIDQFIKTQPGWNSSTENSSYDHLQGGQLLFNNSKGDTGNRTSHANSDYRLLNRTPTNQTGTRKYFKDNSIGGLEFLLANDIDNSNPAVQAEQLNWLHFMMNIGSIMANDPTANFDGLRVDALDNVDADLLQIASDYFKAAYGVDKSEANAIKHLSYLEAWSANDPYYNKDTKGAQLPIDNALRNALTNLLMRDKNTRMQLGDMTAFINSSLNPRGANDKNGERMANYIFTRAHDTEAQTIIQRIIRDRINPNLFGYNFTRDEIKKAFEIYNEDIDKAHKTYASYNLPSVYALMLTNKDSVTRVYYGDLYREDGHYMAKKTPYFDAIDTLLRARIKYVAGGQDMEVKKVGNDGLLTSVRYGKGANNRTDLGTSETRTQGMGVIMTNNYDFRLGSNETVTMNMGRAHRNQLYRPLLLTTKDGIATYLNDSDVPKNLLKRTDWNGNLTFNANDVFGVENVQVSGYLGVWVPYGAKANQDARTQPSNRANSDGQVYKSSAALDSQVMYEAFSNFQAFADDQPELYMNRVLAKNTDLLKAWGITSVGLPPQYVSSKDGTFLDSTIDNGYAFDDRYDMALSQNNKYGSLEDLLNVLRALHKDGIQAIADWVPDQIYNLPGKEVVNATRVNGYGNHQVGYQIIDQAYVANTRTDGTDYQGKYGGAFLDELKAKYPSIFNRVQISNGKQLPTNEKITKWSAKYFNGTNILGRGINYVLRDDKTNQYFNTSANSQLLPTPLRDTGAITSTQVFQRRGQDVYFLRDNQAVKNEFVQDGNGNWYYFGGDGKMTKGAQNINNKDYYFFDNGIQLRNALRRASNGYTYYYGLDGAMVKNAFVDFDDKHKQ
modifications: T5 C-terminal truncation of GTF3808
- GTF activity of strains: Acitivity (Experiment Number 3): 36.2 U/mL

B3: GTF4491NT: N terminal-only truncated GTF4491 from Streptococcus salivarius JIM8777, SEQ ID NO: 106, strain SG1292 (protein)
chain: INGKQYYVNSDGSVRKNFVFEQDGKSYYFDAETGALATKSQDEFSTEPIKATVDFSSGNQLYKNDDKSLDQLDTFITADAWYRPKSILKDGKTWTASTEADKRPLLMVWWPDKSTQVNYLNYMQNQGLGAGSFSTNSSQESLDQAAKAVQTKIEERIAREGNTNWLRTSIDQFIKTQPGWNSSTENSSYDHLQGGQLLFNNSKGDTGNRTSHANSDYRLLNRTPTNQTGTRKYFKDNSIGGLEFLLANDIDNSNPAVQAEQLNWLHFMMNIGSIMANDPTANFDGLRVDALDNVDADLLQIASDYFKAAYGVDKSEANAIKHLSYLEAWSANDPYYNKDTKGAQLPIDNALRNALTNLLMRDKNTRMQLGDMTAFINSSLNPRGANDKNGERMANYIFTRAHDTEAQTIIQRIIRDRINPNLFGYNFTRDEIKKAFEIYNEDIDKAHKTYASYNLPSVYALMLTNKDSVTRVYYGDLYREDGHYMAKKTPYFDAIDTLLRARIKYVAGGQDMEVKKVGNDGLLTSVRYGKGANNRTDLGTSETRTQGMGVIMTNNYDFRLGSNETVTMNMGRAHRNQLYRPLLLTTKDGIATYLNDSDVPKNLLKRTDWNGNLTFNANDVFGVENVQVSGYLGVWVPYGAKANQDARTQPSNRANSDGQVYKSSAALDSQVMYEAFSNFQAFADDQPELYMNRVLAKNTDLLKAWGITSVGLPPQYVSSKDGTFLDSIIDNGYAFDDRYDMALSQNNKYGSLEDLLNVLRALHKDGIQAIADWVPDQIYNLPGKEVVNATRVNGYGYHQQGYQIVDQAYVANTRTDGTDYQGKYGGAFLDELKAKYPSIFNRVQISNGKQLPTNEKITKWSAKYFNGTNILGRGINFVLRDDKTNQYFNTSANSQLLPTPLRDTGAITSTQVFQRRGQDVYFLRDNQTVKNEFVQDGNGNWYYFGGDGKMTKGAQNINSKDYYFFDNGVQLRNALRRASNGYTYYYGLDGAMVKNAFVDFDDKHKQVRAFTTQGTMVVGNLHWSGHHFYFDRETGIQAKDRVVRTDDGKLHYYVAETGDMGRNVFATDSSTGKRYYFDADGNTVTGSRVIDGKTYYFNQDGSVGTAYSNRADSIIFENGKARYITPAGEIGRSIFVYNPATKAWNYFDKEGNRVTGRQYIDGHLYYFKEDGSQAKGEIIEENGIKYYYEPESGILASGRYLQVGDDQWMYFKQDGSLAIGQVRADHGYLKYFDKNGIQVKGKTVVEDGKTYYYDAHSGALVTSSFAEIAPNQWSYFNTDGQALKGKWTINGKEYYFDENGIQYKGKAIKVGSRYKYYDENDGQPVTNRFAQIEPNVWAYFGADCYAVTGEQVINGQHLYFDENGRQVKGAYVTVNGQRRYYDANTGEYVPGR
modifications: Streptococcus salivarius JIM8777
- GTF activity of strains: Acitivity (Experiment Number 1): 42.3 U/mL
- GTF activity of strains: Acitivity (Experiment Number 2): 53.1 U/mL

B4: GTF0459NTnativeT5: T5 C-terminal truncation of GTF0459, SEQ ID NO: 126, strain SG1297 (protein)
chain: INGKQYYVNSDGSVRKNFVFEQDGKSYYFDAETGALATKSQDEFSTEPIKAAVDFSSGNQLYKNDNKSLDQLDTFITADAWYRPKSILKDGKTWTASTEADKRPLLMVWWPDKSTQVNYLNYMQNQGLGAGSFSTNSSQESLNLAAKAVQTKIEERIAREGNTNWLRTSIDQFIKTQPGWNSSTENSSYDHLQGGQLLFNNSKGDTGNRTSYANSDYRLLNRTPTNQSGTRKYFKDNSIGGLEFLLANDIDNSNPAVQAEQLNWLHFMMNIGSIMANDPTANFDGLRVDALDNVDADLLQIASDYFKAVYGVDKSEANAIKHLSYLEAWSANDPYYNKDTKGAQLPIDNALRNALTNLLMRDKNTRMQLGDMTAFMNSSLNPRGANDKNGERMANYIFTRAHDTEAQTIIQRIIRDRINPNLFGYNFTRDEIKKAFEIYNADINTAHKTYASYNLPSVYALMLTNKDSVTRVYYGDLYREDGHYMAKKTPYFDAIDTLLRARIKYVAGGQDMEVKKVGNDGLLTSVRYGKGANNSTDWGTTETRTQGMGVILTNNYDFRLGSNETVTMNMGRAHRNQLYRPLLLTTKDGLATYLNDSDVPSNLLKRTDWNGNLTFNANDVFGVENVQVSGYLGVWVPVGAKANQDARTQPSNRANSDGQVYKSSAALDSQVMYEAFSNFQAFADDQPELYMNRVLAKNTDLLKAWGVTSVGLPPQYVSSKDGTFLDSTIDNGYAFDDRYDMALSQNNKYGSLEDLLNVLRALHKDGIQAIADWVPDQIYNLPGKEVVNATRVNGYGYHQQGYQIVDQAYVANTRTDGTDYQGRYGGAFLDELKAKYPSIFNRVQISNGKQLPTNEKITKWSAKYFNGTNILGRGINYVLRDDKTNQYFNTSANGQLLPTPLRDTGAITSTQVFQRRGQDVYFLRDNQVIKNEFVQDGNGNWYYFGADGKMTKGAQNINSKDYYFFDNGVQLRNALRRASNGYTYYYGLDGAMIKNAFVDFDDKHQ
modifications: T5 C-terminal truncation of GTF0459
- GTF activity of strains: Acitivity (Experiment Number 2): 52 U/mL
